Experimental findings from PMC9531181 are described below.

The assay concerns the target covalently linked hexamer of ClpX-ΔN with a single biotinylation site (ClpX6B). Put plainly: single-molecule TIRF microscopy (dwell time); ClpX6B (10 nM, preincubated with 2 mM ATP) held by streptavidin on biotinylated BSA on DDS-Tween-20 passivated coverslips; 5 nM of ssrA (Cy3) and ssrADD (Cy5) substrates flowed in with 100 uM MTX, 2 mM ATP, 25 ug/ml BSA, Trolox and oxygen scavenger; ClpX reaction buffer (25 mM Hepes pH 7.4, 100 mM KCl, 20 mM MgCl2, 10% glycerol); 30 °C; dwell times fitted with a single exponential.

Consider cpGFP::DHFR::polyG11::ssrA, MTX-bound, for which the reduction of dwell time against Ref11 amounted to 50%.
